# Results from publication PMC7717579, “Phosphoregulation of HORMA domain protein HIM-3 promotes asymmetric synaptonemal complex disassembly in meiotic prophase in Caenorhabditis elegans” (PLoS Genetics, 2020).
# Non-standard residues stand in square brackets, D forms with d. No end group written: not given here. pY = N[C@@H](Cc1ccc(OP(=O)(O)O)cc1)C(=O)O
# Molecular target: T1, HTP-2 protein (full length) (C. elegans)
# T1 construct: HTP-2, HORMA domain protein of the meiotic chromosome axis, C. elegans, full length; also called HTP-2 proteins
# Assay: fluorescence polarisation; 50 nM FITC peptide with various concentrations of HTP-2; 20 mM Tris pH 7.5, 300 mM NaCl, 10% glycerol, 1 mM DTT, 0.1% NP-40; 1 hour at room temperature; 384-well plates; single-site binding model
# Conditions: both partners purified
row,Kd,Binder
1,11.3 µM,"RDSPYGLAQGITKKNKD (also: fluorescein (FITC) conjugated, site not given here) [HIM-3 closure motif peptide with the S282A substitution, fluorescein-tagged]"
2,5.8 µM,"RDSPYGLSQGITKKNKD (also: fluorescein (FITC) conjugated, site not given here) [HIM-3 closure motif peptide, unmodified (wild type), fluorescein-tagged]"
3,16.1 µM,"RDSP[pY]GLSQGITKKNKD (also: fluorescein (FITC) conjugated, site not given here) [HIM-3 closure motif peptide phosphorylated at Tyr279, fluorescein-tagged]"
